Our source for the fold CICF in SK.dDp against SK.empty and SK.tDp cells and fold CICF in SK.tDp^T39A against SK.empty cells values is article PMC5651189.

This assay concerns the target PKA regulatory subunit RIα/β (human (endogenous in SK-Br-3)) (UniProt P10644). Briefly: proximity ligation.

Sequence of PKA regulatory subunit RIα/β (human (endogenous in SK-Br-3)) (P10644 whole entry): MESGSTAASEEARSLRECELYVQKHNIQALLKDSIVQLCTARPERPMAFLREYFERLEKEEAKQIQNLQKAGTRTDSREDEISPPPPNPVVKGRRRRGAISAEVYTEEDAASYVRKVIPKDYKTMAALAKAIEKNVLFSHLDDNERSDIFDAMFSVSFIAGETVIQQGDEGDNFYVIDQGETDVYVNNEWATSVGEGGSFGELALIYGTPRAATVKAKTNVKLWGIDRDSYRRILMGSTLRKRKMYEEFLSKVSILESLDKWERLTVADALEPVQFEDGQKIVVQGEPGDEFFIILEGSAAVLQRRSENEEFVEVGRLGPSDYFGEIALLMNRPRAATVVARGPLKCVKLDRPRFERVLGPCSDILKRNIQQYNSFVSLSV

B1: Darpp-32 (dopamine- and cAMP-regulated phosphoprotein of 32 kDa) (natural protein)
chain: MDPKDRKKIQFSVPAPPSQLDPRQVEMIRRRRPTPAMLFRLSEHSSPEEEASPHQRASGEGHHLKSKRPNPCAYTPPSLKAVQRIAESHLQSISNLNENQASEEEDELGELRELGYPREEDEEEEEDDEEEEEEEDSQAEVLKVIRQSAGQKTTCGQGLEGPWERPPPLDESERDGGSEDQVEDPALSEPGEEPQRPSPSEPGT
B1 returned a fold CICF in SK.dDp against SK.empty and SK.tDp cells of 4 fold.

B2: t-Darpp T39A phosphorylation mutant (natural protein)
chain: AYAPPSLKAVQRIAESHLQSISNLNENQASEEEDELGELRELGYPREEDEEEEEDDEEEEEEEDSQAEVLKVIRQSAGQKTTCGQGLEGPWERPPPLDESERDGGSEDQVEDPALSEPGEEPQRPSPSEPGT
For B2, the fold CICF in SK.tDp^T39A against SK.empty cells turned out to be 3 fold.
